Test results published in patent US20200317768A1 (published 2020).

T1: cynomolgus monkey FcγRIIIaS extracellular domain, C-terminal His-tag (cynomolgus monkey, UniProt Q8SPW2 21-206 at identity 1.00))
T1 construct: also called cyno FcγRIIIaS; cynoFcγRIIIaS
T1 chain: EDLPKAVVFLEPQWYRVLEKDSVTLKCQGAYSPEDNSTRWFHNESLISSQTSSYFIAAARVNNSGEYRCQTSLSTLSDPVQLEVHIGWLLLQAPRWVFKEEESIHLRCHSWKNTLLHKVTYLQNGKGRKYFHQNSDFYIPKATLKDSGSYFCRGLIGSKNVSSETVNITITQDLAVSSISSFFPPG

T2: cynomolgus monkey FcγRIIa1 extracellular domain, C-terminal His-tag (cynomolgus monkey)
T2 construct: also called cyno FcγRIIa1; cynoFcgRIIa1
T2 chain: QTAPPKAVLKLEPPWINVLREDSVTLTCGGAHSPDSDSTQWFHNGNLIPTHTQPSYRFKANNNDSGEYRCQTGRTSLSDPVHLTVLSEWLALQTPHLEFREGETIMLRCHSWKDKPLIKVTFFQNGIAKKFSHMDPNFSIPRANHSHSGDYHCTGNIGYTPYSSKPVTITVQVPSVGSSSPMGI

T3: human FcγRIIaR extracellular domain, C-terminal His-tag (human, UniProt P12318 34-217)
T3 construct: also called human FcγRIIa (type R); FcgRIIaR
T3 chain: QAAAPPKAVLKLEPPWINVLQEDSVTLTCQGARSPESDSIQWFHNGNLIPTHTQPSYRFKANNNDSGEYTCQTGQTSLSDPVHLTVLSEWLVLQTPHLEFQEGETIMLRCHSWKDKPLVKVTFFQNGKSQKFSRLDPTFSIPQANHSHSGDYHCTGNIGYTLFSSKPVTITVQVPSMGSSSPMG

T4: human FcγRIIaH extracellular domain, C-terminal His-tag (human, UniProt P12318 34-217)
T4 construct: also called human FcγRIIa (type H); FcgRIIaH
T4 sequence: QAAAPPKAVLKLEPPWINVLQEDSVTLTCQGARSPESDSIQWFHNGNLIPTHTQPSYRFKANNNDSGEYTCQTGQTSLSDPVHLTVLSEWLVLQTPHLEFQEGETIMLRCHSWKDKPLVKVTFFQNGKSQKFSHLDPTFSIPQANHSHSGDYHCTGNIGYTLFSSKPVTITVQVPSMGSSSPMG

T5: cynomolgus monkey FcγRIIb extracellular domain, C-terminal His-tag (cynomolgus monkey)
T5 construct: also called cyno FcγRIIb; cynoFcγRIIb
T5 chain: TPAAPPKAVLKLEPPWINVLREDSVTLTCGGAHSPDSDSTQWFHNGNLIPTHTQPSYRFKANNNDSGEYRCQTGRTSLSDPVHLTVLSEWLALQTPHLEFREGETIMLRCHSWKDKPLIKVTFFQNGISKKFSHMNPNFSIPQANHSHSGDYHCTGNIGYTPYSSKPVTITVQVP

T6: cynomolgus monkey FcγRIIa3 extracellular domain, C-terminal His-tag (cynomolgus monkey)
T6 construct: also called cyno FcγRIIa3; cynoFcgRIIa3
T6 chain: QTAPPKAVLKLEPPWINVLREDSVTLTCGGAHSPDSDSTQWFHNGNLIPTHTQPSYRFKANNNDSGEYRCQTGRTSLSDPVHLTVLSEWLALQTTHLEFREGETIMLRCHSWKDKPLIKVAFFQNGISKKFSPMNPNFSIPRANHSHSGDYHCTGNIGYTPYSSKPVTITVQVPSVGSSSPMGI

T7: human FcγRIIb extracellular domain, C-terminal His-tag (human, UniProt P31994 43-217)
T7 construct: also called human FcgRIIb; FcgRIIb
T7 sequence: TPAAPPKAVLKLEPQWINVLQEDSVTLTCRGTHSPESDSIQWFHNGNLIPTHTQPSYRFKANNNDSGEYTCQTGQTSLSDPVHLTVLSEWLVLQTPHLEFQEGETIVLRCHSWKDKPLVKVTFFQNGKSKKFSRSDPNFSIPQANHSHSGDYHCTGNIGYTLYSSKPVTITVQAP

T8: cynomolgus monkey FcγRIIa2 extracellular domain, C-terminal His-tag (cynomolgus monkey)
T8 construct: also called cyno FcγRIIa2; cynoFcgRIIa2
T8 chain: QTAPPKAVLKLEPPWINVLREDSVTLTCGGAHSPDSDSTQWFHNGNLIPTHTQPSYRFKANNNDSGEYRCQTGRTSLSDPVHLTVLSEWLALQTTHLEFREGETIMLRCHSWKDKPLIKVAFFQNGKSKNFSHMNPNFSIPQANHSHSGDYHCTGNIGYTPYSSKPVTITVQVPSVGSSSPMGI


Legend:
Test in all cases: SPR (Biacore), antibody captured, FcgR analyte
[1] = target: T1, cynomolgus monkey FcγRIIIaS …
Protocol: (§1) The kinetic analysis of interactions between these antibodies and FcγR was carried out using BIACORE® T200 or BIACORE® 4000 (GE Healthcare). HBS-EP+ (GE Healthcare) was used as the running buffer, and the measurement temperature was set to 25° C. A chip produced by immobilizing Protein A. Protein A/G or mouse anti-human IgG kappa light chain (BD Biosciences) onto a Series S Sensor Chip CM4 or CM5 (GE Healthcare) by the amine-coupling method was used. […] After the measurement, the antibody captured on the chip was washed off by allowing reaction with 10 mM glycine-HCl, pH1.5 and 25 mM NaOH so that the chip was regenerated and used repeatedly. The sensorgrams obtained as measurement results were analyzed by the 1:1 Langmuir binding model using the BIACORE® Evaluation Software to calculate the binding rate constant ka (L/mol/s) and dissociation rate constant kd (l/s), and the dissociation constant KD (mol/L) was calculated from these values. […] Regarding such interactions, KD values were calculated using the following 1:1 binding model described in BIACORE® T100 Software Handbook BR1006-48 Edition AE.
(§2) The behavior of interacting molecules according to the 1:1 binding model on BIACORE® can be described by Equation 1: Req=C·R max/(KD+C)+RI, wherein, Req is a plot of steady-state binding levels to analyte concentration. C is concentration, RI is bulk refractive index contribution in the sample, and Rmax is analyte binding capacity of the surface. When this equation is rearranged, KD can be expressed as Equation 2: KD=C·Rmax/(Req−RI)−C. KD can be calculated by substituting the values of Rmax, RI, and C into Equation 1 or Equation 2. From the current measurement conditions, RI=0, C=2 μmol/L can be used.

[2] = target: T2, cynomolgus monkey FcγRIIa1 …
Protocol: as §1, §2

[3] = target: T3, human FcγRIIaR extracellular domain, …
Protocol: as §1, §2

[4] = target: T4, human FcγRIIaH extracellular domain, …
Protocol: as §1, §2

[5] = target: T5, cynomolgus monkey FcγRIIb extracellular …
Protocol: as §1, §2

[6] = target: T6, cynomolgus monkey FcγRIIa3 …
Protocol: as §1, §2

[7] = target: T7, human FcγRIIb extracellular domain, …
Protocol: as §1, §2

[8] = target: T9, human FcγRIIIaV extracellular domain, C-terminal His-tag (human, UniProt P08637 17-208)
T9 construct: also called human FcgRIIIaV; FcgRIIIaV
Protocol: as §1, §2

[9] = target: T8, cynomolgus monkey FcγRIIa2 …
Protocol: as §1, §2

T9 sequence (P08637 17-208 F176V): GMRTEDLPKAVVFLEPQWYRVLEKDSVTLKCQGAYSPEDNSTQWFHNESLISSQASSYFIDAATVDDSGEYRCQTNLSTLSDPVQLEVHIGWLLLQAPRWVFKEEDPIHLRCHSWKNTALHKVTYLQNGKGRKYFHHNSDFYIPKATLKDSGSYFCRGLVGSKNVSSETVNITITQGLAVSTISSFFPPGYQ

Binder	Kd [1]	Kd [2]	Kd [3]	Kd [4]	Kd [5]	Kd [6]	Kd [7]	Kd [8]	Kd [9]
M103205H795-MY288/M103202L889-SK1 (antibody, human IgG1, kappa, Substitutions introduced into M103205H795-SG1; expressed with M103202L889-SK1 as light chain) heavy: not shown light: DIVMTQSPATLSLSPGERATLSCTSSQSVYHANWLSWFQQKPGQPPKLLIYWASTLAYGVPSRFSGSGSGTDFTLTISSLQPEDAATYYCAGGYGGGRYAFGQGTKVEIKRTVAAPSVFIFPPSDEQLKSGTASVVCLLNNFYPREAKVQWKVDNALQSGNSQESVTEQDSKDSTYSLSSTLTLSKADYEKHKVYACEVTHQGLSSPVTKSFNRGEC	13 µM	1.5 µM	8.5 µM	1.4 µM	3.2 µM	11 µM	6.2 µM	68 µM	2 µM
M103205H795-MY434/M103202L889-SK1 (antibody, human IgG1, kappa, Substitutions introduced into M103205H795-SG1; expressed with M103202L889-SK1 as light chain) heavy: QVTLKESGPVLVKPTETLTLTCTVSGIDLSHDDISWVRQAPGKGLEWVGIISYAGSTYYASWAKGRLTISKDTSKNQVVLTMTNMDPVDTATYYCARGVPAYSHGGDLWGQGTLVTVSSASTKGPSVFPLAPSSKSTSGGTAALGCLVKDYFPEPVTVSWNSGALTSGVHTFPAVLQSSGLYSLSSVVTVPSSSLGTQTYICNVNHKPSNTKVDKKVEPKSCDKTHTCPPCPAPELWNGPSVFLFPPKPKDTLMISRTPEVTCVVVDVSDEDPEVKFNWYVDGVEVHNAKTKPREEQYNSTYRVVSVLTVLHQDWLNGKEYKCKVSNKALPKPIEKTISKAKGQPREPQVYTLPPSREEMTKNQVSLTCLVKGFYPSDIAVEWESNGQPENNYKTTPPVLDSDGSFFLYSKLTVDKSRWQQGNVFSCSVMHEALHNHYTQKSLSLSP light: DIVMTQSPATLSLSPGERATLSCTSSQSVYHANWLSWFQQKPGQPPKLLIYWASTLAYGVPSRFSGSGSGTDFTLTISSLQPEDAATYYCAGGYGGGRYAFGQGTKVEIKRTVAAPSVFIFPPSDEQLKSGTASVVCLLNNFYPREAKVQWKVDNALQSGNSQESVTEQDSKDSTYSLSSTLTLSKADYEKHKVYACEVTHQGLSSPVTKSFNRGEC	11 µM	2.9 µM	1.9 µM	16 µM	0.74 µM	64 µM	1.4 µM	16 µM	2.4 µM
M103205H795-MY289/M103202L889-SK1 (antibody, human IgG1, kappa, Substitutions introduced into M103205H795-SG1; expressed with M103202L889-SK1 as light chain) heavy: QVTLKESGPVLVKPTETLTLTCTVSGIDLSHDDISWVRQAPGKGLEWVGIISYAGSTYYASWAKGRLTISKDTSKNQVVLTMTNMDPVDTATYYCARGVPAYSHGGDLWGQGTLVTVSSASTKGPSVFPLAPSSKSTSGGTAALGCLVKDYFPEPVTVSWNSGALTSGVHTFPAVLQSSGLYSLSSVVTVPSSSLGTQTYICNVNHKPSNTKVDKKVEPKSCDKTHTCPPCPAPELLNGPSVFLFPPKPKDTLMISRTPEVTCVVVDVSHEDPEVKFNWYVDGVEVHNAKTKPREEQYNSTYRVVSVLTVLHQDWLNGKEYKCKVSNKALPKPIEKTISKAKGQPREPQVYTLPPSREEMTKNQVSLTCLVKGFYPSDIAVEWESNGQPENNYKTTPMVLDSDGSFFLYSKLTVDKSRWQQGNVFSCSVMHEALHNHYTQKSLSLSP light: DIVMTQSPATLSLSPGERATLSCTSSQSVYHANWLSWFQQKPGQPPKLLIYWASTLAYGVPSRFSGSGSGTDFTLTISSLQPEDAATYYCAGGYGGGRYAFGQGTKVEIKRTVAAPSVFIFPPSDEQLKSGTASVVCLLNNFYPREAKVQWKVDNALQSGNSQESVTEQDSKDSTYSLSSTLTLSKADYEKHKVYACEVTHQGLSSPVTKSFNRGEC	5.2 µM	1.3 µM	5.5 µM	0.83 µM	0.74 µM	86 µM	2.9 µM	7.7 µM	1.5 µM
M103205H795-MY330/M103202L889-SK1 (antibody, human IgG1, kappa, Substitutions introduced into M103205H795-SG1; expressed with M103202L889-SK1 as light chain) heavy: QVTLKESGPVLVKPTETLTLTCTVSGIDLSHDDISWVRQAPGKGLEWVGIISYAGSTYYASWAKGRLTISKDTSKNQVVLTMTNMDPVDTATYYCARGVPAYSHGGDLWGQGTLVTVSSASTKGPSVFPLAPSSKSTSGGTAALGCLVKDYFPEPVTVSWNSGALTSGVHTFPAVLQSSGLYSLSSVVTVPSSSLGTQTYICNVNHKPSNTKVDKKVEPKSCDKTHTCPPCPAPELWNGPSVFLFPPKPKDTLMISRTPEVTCVVVDVSEEDPEVKFNWYVDGVEVHNAKTKPREEQYNSTYRVVSVLTVLHQDWLNGKEYKCKVSNKALPKPIEKTISKAKGQPREPQVYTLPPSREEMTKNQVSLTCLVKGFYPSDIAVEWESNGQPENNYKTTPMVLDSDGSFFLYSKLTVDKSRWQQGNVFSCSVMHEALHNHYTQKSLSLSP light: DIVMTQSPATLSLSPGERATLSCTSSQSVYHANWLSWFQQKPGQPPKLLIYWASTLAYGVPSRFSGSGSGTDFTLTISSLQPEDAATYYCAGGYGGGRYAFGQGTKVEIKRTVAAPSVFIFPPSDEQLKSGTASVVCLLNNFYPREAKVQWKVDNALQSGNSQESVTEQDSKDSTYSLSSTLTLSKADYEKHKVYACEVTHQGLSSPVTKSFNRGEC	6.6 µM	2.2 µM	0.9 µM	0.96 µM	0.61 µM	4.7 µM	0.67 µM	12 µM	2.2 µM
